Measured values as given in patent publication US20170355769A1 (AbbVie / Abbott, published 2017).
Changes are numbered by the printed parent chain.

Key:
Human full length B7-H3 [1] = biological target: T1, Human full length B7-H3 (human, UniProt Q5ZPR3 29-534); test: FACS, NCI-H1650 cells
T1 construct: On 3T12 fibroblasts expressing full length human B7-H3 or on NCI-H1650 cells; signal peptide residues 1-28 stated; also called huB7-H3; CD276
T1 sequence: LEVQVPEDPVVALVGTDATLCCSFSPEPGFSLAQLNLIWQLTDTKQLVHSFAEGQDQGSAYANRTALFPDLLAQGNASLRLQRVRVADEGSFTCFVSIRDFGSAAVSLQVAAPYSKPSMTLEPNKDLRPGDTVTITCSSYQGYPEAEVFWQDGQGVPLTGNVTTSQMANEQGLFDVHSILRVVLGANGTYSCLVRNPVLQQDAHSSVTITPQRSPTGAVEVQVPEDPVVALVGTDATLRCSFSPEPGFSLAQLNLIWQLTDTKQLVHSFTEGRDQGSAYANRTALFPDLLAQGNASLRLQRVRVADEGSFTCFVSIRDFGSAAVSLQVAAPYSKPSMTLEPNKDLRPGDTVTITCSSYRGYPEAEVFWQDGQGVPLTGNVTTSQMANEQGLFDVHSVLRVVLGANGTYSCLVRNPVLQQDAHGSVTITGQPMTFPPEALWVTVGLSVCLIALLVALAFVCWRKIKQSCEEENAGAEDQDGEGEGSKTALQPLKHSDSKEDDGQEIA
Method: To generate purified chimeric antibodies, expression vectors were transiently transfected into HEK293 6E suspension cell cultures in a ratio of 60% to 40% light to heavy chain construct. 1 mg/ml of polyethylenimine (PEI) or 2.6 μL/mL of Expifectamine was used to transfect the cells. Cell supernatants were harvested after five days in shaking flasks, spun down to pellet cells, and filtered through 0.22 μm filters to separate IgG from culture contaminants. Antibody-containing supernatants were purified on Akta Pure using protein A mAb SelectSure. Columns were equilibrated in PBS pH 7.4, supernatants were then passed through the column and a wash was performed with PBS pH 7.4. IgG were eluted with 0.1 M acetic acid pH 3.5 and collected in several aliquots. Fractions containing IgG were pooled and dialyzed in PBS overnight at 4° C.
(§1) Cells were harvested from flasks when approximately 80% confluent using Gibco® Cell Dissociation Buffer. Cells were washed once in PBS/1% FBS (FACS buffer) then resuspended at 2.5×10⁶ cells/mL in FACS buffer. 100 μL of cells/well were added to a round bottom 96-well plate. 10 μL of a 10× concentration of mAb/ADC (final concentrations are indicated the figures). Wells were washed twice with FACS buffer and resuspended in 50 μL of secondary Ab (AlexaFluor 488) diluted in FACS buffer. The plate was incubated at 4° C. for one hour and washed twice with FACS buffer. Cells were resuspended in 100 μL of PBS/1% formaldehyde and analyzed on a Becton Dickinson LSRII flow cytometer. Data was analyzed using WinList flow cytometry analysis software.

[2] = biological target: T2, Human B7-H3-ECD (His tag) (human, UniProt Q5ZPR3 29-461); test: SPR Biacore, naked mAb
T2 construct: SPR analyte; also called huB7-H3; soluble ECD of human B7-H3
T2 sequence: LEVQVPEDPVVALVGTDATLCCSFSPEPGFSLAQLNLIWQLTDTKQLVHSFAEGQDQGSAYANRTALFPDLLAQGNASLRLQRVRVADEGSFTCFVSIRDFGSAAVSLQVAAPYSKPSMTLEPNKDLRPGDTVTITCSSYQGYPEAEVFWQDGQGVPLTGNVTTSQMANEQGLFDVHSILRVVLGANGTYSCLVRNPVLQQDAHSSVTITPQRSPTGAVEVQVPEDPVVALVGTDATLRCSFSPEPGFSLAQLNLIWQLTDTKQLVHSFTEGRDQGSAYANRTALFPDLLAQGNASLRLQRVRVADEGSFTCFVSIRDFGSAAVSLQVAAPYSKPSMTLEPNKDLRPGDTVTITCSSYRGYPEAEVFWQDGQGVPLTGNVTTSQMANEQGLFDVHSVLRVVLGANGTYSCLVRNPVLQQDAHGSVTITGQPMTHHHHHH
Text: Biacore T200 SPR instruments were used to measure the binding kinetics of human B7-H3 (analyte) binding to various mAbs (ligands). The assay format was Fc-based capture via immobilized anti-mouse (Fc) (Pierce 31170) or immobilized anti-human (Fc) (Pierce 31125). A standard amine coupling protocol was employed to immobilize the capture reagents via primary amines to the carboxy-methyl (CM) dextran surface of CM5 sensorchips (Biacore); capture antibodies were coupled to a level of approximately 5000RU. For binding kinetic measurements the assay buffer was HBS-EP+ (Biacore): 10 mM Hepes, pH7.4, 150 mM NaCl, 3 mM EDTA, 0.05% polysorbate 20. During the assay, all measurements were referenced against the capture surface alone. Each assay cycle consisted of the following steps: 1) Capture of ligand to approximately 50RU; 2) Analyte injection over both reference and test surface, 240 μL at 80 μL/min, after which the dissociation was monitored for 900 seconds at 80 μL/min; 3) Regeneration of capture surface with low pH glycine. […] Data were processed and fit to a 1:1 binding model using Biacore T200 Evaluation Software to determine the binding kinetic rate constants, kₐ (on-rate) and kd (off-rate), and the equilibrium dissociation constant (affinity, KD).
(§2) The parental chAb18 from which the variants were derived was also tested as a comparator.

Human full length B7-H3 [3] = biological target: T1, Human full length B7-H3; test: FACS (Example 6 method)
Method: as §1, §2

B1: chAb14 (antibody, IgG1, V domains shown)
VH: EVKLVESGGGLVKPGGSLKLSCAASGFTFSSYGMSWVRQTPEKRLEWVATISGGGTNTYYPDSVEGRFTISRDNAKNFLYLQMSSLRSEDTALYYCARHYGSQTMDYWGQGTSVTVSS
VL: DIQMTQSPASLSASVGETVTITCRTSGNIHNYLTWYQQKQGKSPQLLVYNAKTLADGVPSRFSGSGSGTQFSLKINSLQPEDFGSYYCQHFWSIMWTFGGGTKLEIK
notes: chimeric, huIgG1/k
Binder B1 has an EC50 (Human full length B7-H3 [1]) of 0.81 nM.

B2: chAb2 (antibody, IgG1, V domains shown)
VH: QVQLQQPGAELVKPGASVKLSCKASGYTFTSYWMHWVKQRPGQGLEWIGMIHPDSGTTNYNEKFRSKATLTVDKSSSTAYMQLSSLTSEDSAVYYCAVYYGSTYWYFDVWGTGTTVTVSS
VL: DVVMTQTPLSLPVSLGDQAYISCRSSQSLVHINGNTYLHWYRQKPGQSPKLLIYKVSNRFSGVPDRFSGSGSGTDFTLKISRVEAEDLGVYFCSQSTHFPFTFGSGTKLEIK
notes: chimeric, huIgG1/k
For B2, the EC50 (Human full length B7-H3 [1]) was 0.1 nM.

B3: huAb18v2 (antibody, V domains shown)
VH: EVQLVQSGAEVKKPGSSVKVSCKASGYSFTSYTIHWVRQAPGQGLEWMGYINPNSRNTDYAQKFQGRVTLTADKSTSTAYMELSSLRSEDTAVYYCARYSGSTPYWYFDVWGQGTTVTVSS
VL: DIQLTQSPSFLSASVGDRVTITCRASSSVSYMNWYQQKPGKAPKLLIYATSNLASGVPSRFSGSGSGTEFTLTISSLQPEDFATYYCQQWSSNPLTFGQGTKLEIK
notes: humanized IgG
Binder B3 has a Kd [2] of 0.69 nM.

B4: huAb18v6 (antibody, V domains shown)
VH: B3 VH
VL: EIVLTQSPDFQSVTPKEKVTITCRASSSVSYMNWYQQKPDQSPKLLIKATSNLASGVPSRFSGSGSGTDFTLTINSLEAEDAATYYCQQWSSNPLTFGQGTKLEIK
notes: humanized IgG
Work on B4 yielded a Kd [2] of 0.2 nM.

B5: huAb18v10 (antibody, V domains shown)
VH: B3 VH
VL: B3 VL with L45P, L46W, G63V, F70H
notes: humanized IgG
Binder B5 has a Kd [2] of 0.25 nM.

B6: huAb18v6-CZ (antibody, V domains shown)
VH: B3 VH
VL: B4 VL
modifications: synthon CZ on reduced interchain Cys
notes: ADC, DAR 3.4
For B6, the EC50 (Human full length B7-H3 [3]) was 2.09 nM.

B7: huAb18v9-CZ (antibody, V domains shown)
VH: B3 VH with M48I, A61N, Q65K, G66D, V68T, K74R
VL: B4 VL with L45P, L46W, K48Y, G63V, G65V, F70H
modifications: synthon CZ on reduced interchain Cys
notes: ADC, DAR 2.4
With B7 the EC50 (Human full length B7-H3 [3]) was 1.58 nM.

B8: huAb18v8-CZ (antibody, V domains shown)
VH: B3 VH with M48I, A61N, Q65K, G66D, V68T, K74R
VL: B3 VL with L45P, L46W, G63V, F70H
modifications: synthon CZ on reduced interchain Cys
notes: ADC, DAR 2.6
In the case of B8, the EC50 (Human full length B7-H3 [3]) is reported as 1.98 nM.

B9: huAb18v5-CZ (antibody, V domains shown)
VH: B3 VH with A61N, Q65K, G66D, L70I
VL: B4 VL
modifications: synthon CZ on reduced interchain Cys
notes: ADC, DAR 3.4
Work on B9 yielded an EC50 (Human full length B7-H3 [3]) of 2.91 nM.

B10: huAb18v8 (antibody, V domains shown)
VH: B3 VH with M48I, A61N, Q65K, G66D, V68T, K74R
VL: B3 VL with L45P, L46W, G63V, F70H
notes: humanized IgG
In the case of B10, the Kd [2] is reported as 0.25 nM.

B11: huAb18v1 (antibody, V domains shown)
VH: B3 VH with A61N, Q65K, G66D, L70I
VL: B3 VL
notes: humanized IgG
B11 showed a Kd [2] of 0.52 nM.

B12: huAb18v5 (antibody, V domains shown)
VH: B3 VH with A61N, Q65K, G66D, L70I
VL: B4 VL
notes: humanized IgG
Binder B12 has a Kd [2] of 0.23 nM.

B13: huAb18v7-CZ (antibody, V domains shown)
VH: B3 VH
VL: B4 VL with L45P, L46W, K48Y, G63V, G65V, F70H
modifications: synthon CZ on reduced interchain Cys
notes: ADC, DAR 4.3
With B13 the EC50 (Human full length B7-H3 [3]) was 1.92 nM.

B14: huAb18v4 (antibody, V domains shown)
VH: B3 VH
VL: B3 VL with A42S, L45P, L46W, G63V, G65V, F70H
notes: humanized IgG
B14 gave a Kd [2] of 0.57 nM.

B15: huAb18v9 (antibody, V domains shown)
VH: B3 VH with M48I, A61N, Q65K, G66D, V68T, K74R
VL: B4 VL with L45P, L46W, K48Y, G63V, G65V, F70H
notes: humanized IgG
With B15 the Kd [2] was 0.38 nM.

B16: huAb18v4-CZ (antibody, V domains shown)
VH: B3 VH
VL: B3 VL with A42S, L45P, L46W, G63V, G65V, F70H
modifications: synthon CZ on reduced interchain Cys
notes: ADC, DAR 2.5
Work on B16 yielded an EC50 (Human full length B7-H3 [3]) of 0.9 nM.

B17: huAb18v3 (antibody, V domains shown)
VH: B3 VH with M48I, A61N, Q65K, G66D, V68T, K74R
VL: B3 VL with A42S, L45P, L46W, G63V, G65V, F70H
notes: humanized IgG
For B17, the Kd [2] was 0.23 nM.

B18: huAb18v7 (antibody, V domains shown)
VH: B3 VH
VL: B4 VL with L45P, L46W, K48Y, G63V, G65V, F70H
notes: humanized IgG
B18 gave a Kd [2] of 0.4 nM.

B19: chAb11 (antibody, IgG1, V domains shown)
VH: EVKLVESGGGLVQPGGSLRLSCATSGFTFTNYYMSWVRQPPGKALEWLGFIRNKANDYTTEYSASVKGRFTISRDNSQSILYLQMNTLRAEDSATYYCARESPGNPFAYWGQGTLVTVSA
VL: DIVMTQSPSSLTVTAGEKVTMTCKSSQSLLNSGTQKNFLTWYQQKPGQPPKLLIYWASTRESGVPDRFTGSGSGTDFTLTISSVQAEDLAVYFCQNDYIYPLTFGAGTKLELK
notes: chimeric, huIgG1/k
For B19, the EC50 (Human full length B7-H3 [1]) was 1.12 nM.

B20: chAb4 (antibody, IgG1, V domains shown)
VH: QVQLQQPGAELVKPGASVKLSCKASGYSFTSYWMHWVKQRPGQGLEWIGMIHPNSGSNNYNEKFKSKATLTVDKSSNTAYMQLSSLTSEDSAVYYCARRLGLHFDYWGQGTTLTVSS
VL: DIVMTQSQKFMSTPVGDRVSITCKASQNVGTAVAWYQQKPGQSPKLLIYSASNRYTGVPDRFTGSGSGTDFTLTISNMQSEDLADYFCQQYSSYPYTFGGGTKLEIK
notes: chimeric, huIgG1/k
Binder B20 has an EC50 (Human full length B7-H3 [1]) of 0.56 nM.

B21: chAb6 (antibody, IgG1, V domains shown)
VH: QVQLQQSGAELMKPGASVKISCKATGYTFSRYWIEWVKQRPGHGLEWIGEILPGSGSTNYNEKFKGKATFTADTSSNTAYMQVSSLTSEDSAVHYCARRGYGYVPYALDYWGQGTSVTVSS
VL: EIQMTQTTSSLSASLGDRVTISCRASQDISNSLNWYQQKPDGTVNLLIYYTSRLYSGVPSRFSGSGSGTDYSLTISNLEQEDIATYFCQQGNTLPYTFGGGTKLEIK
notes: chimeric, huIgG1/k
B21 was tested, and the EC50 (Human full length B7-H3 [1]) was 0.33 nM.

B22: chAb16 (antibody, IgG1, V domains shown)
VH: EVKLLESGGGLVQPGGSLKLSCAASGFDFSRYWMSWVRQAPGKGLEWIGEINPDSSTINYTPSLKDKFIISRDNAKNTLYLQMSKVRSEDTALYYCARPGFGNYIYAMDYWGQGTSVTVSS
VL: B21 VL with E1D, S22N, S32F, N45K, S56L, Y96P
notes: chimeric, huIgG1/k
B22 gave an EC50 (Human full length B7-H3 [1]) of 0.27 nM.
